The values below come from the supplement of paper PMC10899765.

Details in all cases: 20 nM; 72 h
Series [1] deals with MCF10A. The series can be described thus: percent viability (nuclei count relative to siNT); higher = more viable cells. Here is the method: (§1)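 After 72 h, cells were fixed and stained with Hoechst and anti-fibrillarin, and nucleoli per nucleus were counted with CellProfiler. Values are plate-adjusted percent effect for the one-nucleolus and 5+ nucleoli phenotypes, normalised to siNT (0%) and to the positive controls siNOL11 or siKIF11 (100%), as the mean of biological triplicates. Percent viability is the nuclei count relative to siNT.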

In series [2] the test system is MCF10A. The series can be described thus: 5+ nucleoli phenotype percent effect (relative to siNT 0% and siKIF11 100%); higher = more cells with five or more nucleoli. Here is the method: as §1
Series [3] has as its system MCF10A. Put plainly: one-nucleolus phenotype percent effect (relative to siNT 0% and siNOL11 100%); higher = more cells with one nucleolus (ribosome biogenesis inhibition). The method, then: as §1

With UAUAGAGAGCAGGAAGAUUAAUGU [hsa-miR-3976], the percent viability in series [1] is 78.3%. In addition, the “5+ nucleoli phenotype percent effect” value in series [2] was determined as 31.2%. For the same sequence, the “one-nucleolus phenotype percent effect” value in series [3] is -15.3%.

For the sequence AGGUUGUCUGUGAUGAGUUCG [hsa-miR-410-5p], the percent viability in series [1] is 39.7%. The “5+ nucleoli phenotype percent effect” value in series [2] was 75.2%. For the same sequence, the “one-nucleolus phenotype percent effect” value in series [3] is -12.5%.

On to CCCCGCCACCGCCUUGG [hsa-miR-4258], for which the percent viability in series [1] worked out at 54.5%. Further, in series [2], the “5+ nucleoli phenotype percent effect” value came to 29.4%. Moreover, in series [3], the “one-nucleolus phenotype percent effect” value is -17.4%.

As for CUAUACGGCCUCCUAGCUUUCC [hsa-let-7e-3p], the percent viability in series [1] was determined as 45%. Further, the “5+ nucleoli phenotype percent effect” value in series [2] is 7.57%. Also, in series [3], the “one-nucleolus phenotype percent effect” value is -18.7%.

On to GACACGGGCGACAGCUGCGGCCC [hsa-miR-602], for which the percent viability in series [1] is 91.9%. The “5+ nucleoli phenotype percent effect” value in series [2] worked out at 45.6%. Besides, the “one-nucleolus phenotype percent effect” value in series [3] was -18.7%.

As to GCCUGGAGCUACUCCACCAUCUC [hsa-miR-4254], in series [1], the percent viability worked out at 26.1%. In series [2], the “5+ nucleoli phenotype percent effect” value turned out to be 11.1%. The “one-nucleolus phenotype percent effect” value in series [3] stood at 7%.

“CAGCCCUCCUCCCGCACCCAAA [hsa-miR-4687-5p]”: the percent viability in series [1] came out at 80.6%. Also, the “5+ nucleoli phenotype percent effect” value in series [2] was -6.45%. For the same sequence, the “one-nucleolus phenotype percent effect” value in series [3] was -10.4%.

As to “CAGUUCUGCUGUUCUGACUCUAG [hsa-miR-6874-3p]”, the percent viability in series [1] is 28.9%. For the same sequence, in series [2], the “5+ nucleoli phenotype percent effect” value is -30.6%. The “one-nucleolus phenotype percent effect” value in series [3] is -4.11%.

Consider CAGGGUCAGCUGAGCAUG [hsa-miR-1178-5p], for which, in series [1], the percent viability was determined as 51.5%. For the same sequence, in series [2], the “5+ nucleoli phenotype percent effect” value is 8.34%. For the same sequence, the “one-nucleolus phenotype percent effect” value in series [3] is 9.85%.

Turning to AUGACCUAUGAAUUGACAGAC [hsa-miR-215], the percent viability in series [1] came out at 29.2%. Besides, the “5+ nucleoli phenotype percent effect” value in series [2] was -16.4%. Besides, in series [3], the “one-nucleolus phenotype percent effect” value worked out at 45.7%.

Take “CUGUACAGCCUCCUAGCUUUCC [hsa-let-7a-2-3p]”: in series [1], the percent viability stood at 43.3%. Besides, the “5+ nucleoli phenotype percent effect” value in series [2] is -34.3%. For the same sequence, the “one-nucleolus phenotype percent effect” value in series [3] worked out at 2.44%.

For the sequence UUGGAGGCGUGGGUUUU [hsa-miR-4443], the percent viability in series [1] was found to be 20.9%. For the same sequence, in series [2], the “5+ nucleoli phenotype percent effect” value is -29.8%. Moreover, in series [3], the “one-nucleolus phenotype percent effect” value came to 61.2%.

Regarding “AGGGACUUUCAGGGGCAGCUGU [hsa-miR-365b-5p]”, the percent viability in series [1] worked out at 36.2%. Besides, the “5+ nucleoli phenotype percent effect” value in series [2] is 19.9%. The “one-nucleolus phenotype percent effect” value in series [3] stood at 4.45%.

On to UCAGGCUCAGUCCCCUCCCGAU [hsa-miR-484], for which the percent viability in series [1] came out at 97%. Also, the “5+ nucleoli phenotype percent effect” value in series [2] is 40.7%. Besides, the “one-nucleolus phenotype percent effect” value in series [3] was -7.07%.

As to UGGAUAUGAUGACUGAAA [hsa-miR-4791], in series [1], the percent viability turned out to be 71.5%. Also, the “5+ nucleoli phenotype percent effect” value in series [2] was 4.66%. For the same sequence, in series [3], the “one-nucleolus phenotype percent effect” value was -7.67%.

Turning to “CGGGGUUUUGAGGGCGAGAUGA [hsa-miR-193b-5p]”, the percent viability in series [1] stood at 46.7%. Further, the “5+ nucleoli phenotype percent effect” value in series [2] was -32.1%. In addition, the “one-nucleolus phenotype percent effect” value in series [3] was 25.4%.

In the case of “UCACAACAACCUUGCAGGGUAGA [hsa-miR-5003-5p]”, the percent viability in series [1] amounted to 80.1%. Moreover, the “5+ nucleoli phenotype percent effect” value in series [2] came to 16.9%. Further, the “one-nucleolus phenotype percent effect” value in series [3] is -10.6%.

Turning to “UGAGACCAGGACUGGAUGCACC [hsa-miR-4786-5p]”, the percent viability in series [1] was determined as 42.2%. Further, the “5+ nucleoli phenotype percent effect” value in series [2] is -0.448%. In addition, in series [3], the “one-nucleolus phenotype percent effect” value was -5.75%.

Take “GAGCUUUUGGCCCGGGUUAUAC [hsa-miR-208a-5p]”: the percent viability in series [1] is 216%. Besides, the “5+ nucleoli phenotype percent effect” value in series [2] stood at 45.1%. Also, in series [3], the “one-nucleolus phenotype percent effect” value is -31%.

For “UUCAGCCAGGCUAGUGCAGUCU [hsa-miR-3157-5p]”, the percent viability in series [1] was found to be 20.1%. Further, the “5+ nucleoli phenotype percent effect” value in series [2] is -4.24%. In addition, the “one-nucleolus phenotype percent effect” value in series [3] is 7.66%.

As for UGAGGUAGUAAGUUGUAUUGUU [hsa-miR-98-5p], in series [1], the percent viability worked out at 30%. The “5+ nucleoli phenotype percent effect” value in series [2] came to 44.8%. The “one-nucleolus phenotype percent effect” value in series [3] was -13%.

“GGUUCCCUCUCCAAAUGUGUCU [hsa-miR-642b-5p]”: the percent viability in series [1] is 44.4%. In addition, the “5+ nucleoli phenotype percent effect” value in series [2] was 21.2%. Further, the “one-nucleolus phenotype percent effect” value in series [3] was 11.8%.

For UGGACUGCCCUGAUCUGGAGA [hsa-miR-1288], the percent viability in series [1] is 33%. Also, in series [2], the “5+ nucleoli phenotype percent effect” value stood at 2.11%. The “one-nucleolus phenotype percent effect” value in series [3] was 7.88%.

For AGGAUAGGAAGAAUGAAGUGCU [hsa-miR-5191], in series [1], the percent viability stood at 40.6%. Further, the “5+ nucleoli phenotype percent effect” value in series [2] is -7.65%. The “one-nucleolus phenotype percent effect” value in series [3] stood at 14.1%.

In the case of GUGGGCGGGGGCAGGUGUGUG [hsa-miR-1228-5p], the percent viability in series [1] was found to be 64.8%. In addition, the “5+ nucleoli phenotype percent effect” value in series [2] came out at 15.3%. Moreover, in series [3], the “one-nucleolus phenotype percent effect” value is -5.58%.

“GCGGUGAUCCCGAUGGUGUGAGC [hsa-miR-598-5p]”: the percent viability in series [1] came to 93.1%. The “5+ nucleoli phenotype percent effect” value in series [2] came to 32.8%. Besides, in series [3], the “one-nucleolus phenotype percent effect” value is -24%.

Take UAGGAGGGAAUAGUAAAAGCAG [hsa-miR-4779]: the percent viability in series [1] was 15%. Further, the “5+ nucleoli phenotype percent effect” value in series [2] is -25.8%. For the same sequence, in series [3], the “one-nucleolus phenotype percent effect” value is 54.7%.

Take UCUCUGGUCUUGCCACCCCAG [hsa-miR-6824-3p]: the percent viability in series [1] is 26.4%. Besides, the “5+ nucleoli phenotype percent effect” value in series [2] is -18.8%. Further, the “one-nucleolus phenotype percent effect” value in series [3] amounted to 16.2%.

Consider “CCUGUGGGCCACCUAGUCACCAA [hsa-miR-134-3p]”, for which, in series [1], the percent viability was determined as 44.8%. Also, the “5+ nucleoli phenotype percent effect” value in series [2] was -15.2%. Moreover, in series [3], the “one-nucleolus phenotype percent effect” value was determined as 8.84%.

In the case of “AUGAAGUGCACUCAUGAUAUGU [hsa-miR-3616-5p]”, the percent viability in series [1] was 27.9%. For the same sequence, the “5+ nucleoli phenotype percent effect” value in series [2] is -38.4%. In addition, the “one-nucleolus phenotype percent effect” value in series [3] was found to be 32.7%.

As to “AGGGGUGUGGAAAGAGGCAGAACA [hsa-miR-6747-5p]”, the percent viability in series [1] amounted to 40%. For the same sequence, the “5+ nucleoli phenotype percent effect” value in series [2] came out at 37.7%. Besides, the “one-nucleolus phenotype percent effect” value in series [3] is -4.28%.

For the sequence UGAUAUGUUUGAUAUUGGGUU [hsa-miR-190b], the percent viability in series [1] stood at 36%. The “5+ nucleoli phenotype percent effect” value in series [2] was -11.2%. The “one-nucleolus phenotype percent effect” value in series [3] turned out to be 21.8%.

In the case of “AGGAGGUGGUACUAGGGGCCAGC [hsa-miR-6851-5p]”, in series [1], the percent viability came out at 15.2%. For the same sequence, the “5+ nucleoli phenotype percent effect” value in series [2] was -20.3%. The “one-nucleolus phenotype percent effect” value in series [3] came out at 31.8%.

On to CUACAGGCUGGAAUGGGCUCA [hsa-miR-7151-3p], for which the percent viability in series [1] turned out to be 20.6%. Also, in series [2], the “5+ nucleoli phenotype percent effect” value amounted to 2.37%. For the same sequence, the “one-nucleolus phenotype percent effect” value in series [3] amounted to 13.6%.

In the case of “UUUCCUGUCCUCCAACCAGACC [hsa-miR-7152-5p]”, in series [1], the percent viability was found to be 26.5%. Also, the “5+ nucleoli phenotype percent effect” value in series [2] was -28.9%. For the same sequence, the “one-nucleolus phenotype percent effect” value in series [3] came out at 11.7%.

Turning to “UGUCUAUACUCUGUCACUUUAC [hsa-miR-4796-5p]”, in series [1], the percent viability is 34.7%. For the same sequence, the “5+ nucleoli phenotype percent effect” value in series [2] was -19.7%. For the same sequence, in series [3], the “one-nucleolus phenotype percent effect” value amounted to 45.9%.
